Measurements: PMC2234252 (The Journal of Cell Biology, 2008)

T1: hZwint-1 (human, UniProt O95229 1-277)
T1 sequence (looked up): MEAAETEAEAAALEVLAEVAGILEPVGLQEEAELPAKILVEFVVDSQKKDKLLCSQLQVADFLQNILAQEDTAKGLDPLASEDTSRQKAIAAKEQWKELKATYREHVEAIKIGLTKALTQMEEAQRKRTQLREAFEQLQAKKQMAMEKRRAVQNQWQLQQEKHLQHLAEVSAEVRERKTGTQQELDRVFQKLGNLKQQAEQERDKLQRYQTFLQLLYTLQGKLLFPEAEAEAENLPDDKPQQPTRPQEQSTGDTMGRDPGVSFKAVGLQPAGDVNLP


biological target: T1, hZwint-1; test: two-hybrid

β-galactosidase assay	Binder
1.2	hZW10 DI69AA (natural protein, human, UniProt O43264 1-779, looked up) MASFVTEVLAHSGRLEKEDLGTRISRLTRRVEEIKGEVCNMISKKYSEFLPSMQSAQGLITQVDKLSEAADLLKSRIESEVRRDLHVSTGEFTDLKQQLERDSVVLSLLKQLQEFSTAIEEYNCALTEKKYVTGAQRLEEAQKCLKLLKSRKCFDLKILKSLSMELTIQKQNILYHLGEEWQKLIVWKFPPSKDTSSLESYLQTELHLYTEQSHKEEKTPMPPISSVLLAFSVLGELHSKLKSFGQMLLKYILRPLASCPSLHAVIESQPNIVIIRFESIMTNLEYPSPSEVFTKIRLVLEVLQKQLLDLPLDTDLENEKTSTVPLAEMLGDMIWEDLSECLIKNCLVYSIPTNSSKLQQYEEIIQSTEEFENALKEMRFLKGDTTDLLKYARNINSHFANKKCQDVIVAARNLMTSEIHNTVKIIPDSKINVPELPTPDEDNKLEVQKVSNTQYHEVMNLEPENTLDQHSFSLPTCRISESVKKLMELAYQTLLEATTSSDQCAVQLFYSVRNIFHLFHDVVPTYHKENLQKLPQLAAIHHNNCMYIAHHLLTLGHQFRLRLAPILCDGTATFVDLVPGFRRLGTECFLAQMRAQKGELLERLSSARNFSNMDDEENYSAASKAVRQVLHQLKRLGIVWQDVLPVNIYCKAMGTLLNTAISEVIGKITALEDISTEDGDRLYSLCKTVMDEGPQVFAPLSEESKNKKYQEEVPVYVPKWMPFKELMMMLQASLQEIGDRWADGKGPLAAAFSSSEVKALIRALFQNTERRAAALAKIK
449	hZW10 S55A (natural protein, human, UniProt O43264 1-779, looked up) MASFVTEVLAHSGRLEKEDLGTRISRLTRRVEEIKGEVCNMISKKYSEFLPSMQAAQGLITQVDKLSEDIDLLKSRIESEVRRDLHVSTGEFTDLKQQLERDSVVLSLLKQLQEFSTAIEEYNCALTEKKYVTGAQRLEEAQKCLKLLKSRKCFDLKILKSLSMELTIQKQNILYHLGEEWQKLIVWKFPPSKDTSSLESYLQTELHLYTEQSHKEEKTPMPPISSVLLAFSVLGELHSKLKSFGQMLLKYILRPLASCPSLHAVIESQPNIVIIRFESIMTNLEYPSPSEVFTKIRLVLEVLQKQLLDLPLDTDLENEKTSTVPLAEMLGDMIWEDLSECLIKNCLVYSIPTNSSKLQQYEEIIQSTEEFENALKEMRFLKGDTTDLLKYARNINSHFANKKCQDVIVAARNLMTSEIHNTVKIIPDSKINVPELPTPDEDNKLEVQKVSNTQYHEVMNLEPENTLDQHSFSLPTCRISESVKKLMELAYQTLLEATTSSDQCAVQLFYSVRNIFHLFHDVVPTYHKENLQKLPQLAAIHHNNCMYIAHHLLTLGHQFRLRLAPILCDGTATFVDLVPGFRRLGTECFLAQMRAQKGELLERLSSARNFSNMDDEENYSAASKAVRQVLHQLKRLGIVWQDVLPVNIYCKAMGTLLNTAISEVIGKITALEDISTEDGDRLYSLCKTVMDEGPQVFAPLSEESKNKKYQEEVPVYVPKWMPFKELMMMLQASLQEIGDRWADGKGPLAAAFSSSEVKALIRALFQNTERRAAALAKIK
1.8	hZW10 SE67AA (natural protein, human, UniProt O43264 1-779, looked up) MASFVTEVLAHSGRLEKEDLGTRISRLTRRVEEIKGEVCNMISKKYSEFLPSMQSAQGLITQVDKLAADIDLLKSRIESEVRRDLHVSTGEFTDLKQQLERDSVVLSLLKQLQEFSTAIEEYNCALTEKKYVTGAQRLEEAQKCLKLLKSRKCFDLKILKSLSMELTIQKQNILYHLGEEWQKLIVWKFPPSKDTSSLESYLQTELHLYTEQSHKEEKTPMPPISSVLLAFSVLGELHSKLKSFGQMLLKYILRPLASCPSLHAVIESQPNIVIIRFESIMTNLEYPSPSEVFTKIRLVLEVLQKQLLDLPLDTDLENEKTSTVPLAEMLGDMIWEDLSECLIKNCLVYSIPTNSSKLQQYEEIIQSTEEFENALKEMRFLKGDTTDLLKYARNINSHFANKKCQDVIVAARNLMTSEIHNTVKIIPDSKINVPELPTPDEDNKLEVQKVSNTQYHEVMNLEPENTLDQHSFSLPTCRISESVKKLMELAYQTLLEATTSSDQCAVQLFYSVRNIFHLFHDVVPTYHKENLQKLPQLAAIHHNNCMYIAHHLLTLGHQFRLRLAPILCDGTATFVDLVPGFRRLGTECFLAQMRAQKGELLERLSSARNFSNMDDEENYSAASKAVRQVLHQLKRLGIVWQDVLPVNIYCKAMGTLLNTAISEVIGKITALEDISTEDGDRLYSLCKTVMDEGPQVFAPLSEESKNKKYQEEVPVYVPKWMPFKELMMMLQASLQEIGDRWADGKGPLAAAFSSSEVKALIRALFQNTERRAAALAKIK
131	hZW10 SE79AA (natural protein, human, UniProt O43264 1-779, looked up) MASFVTEVLAHSGRLEKEDLGTRISRLTRRVEEIKGEVCNMISKKYSEFLPSMQSAQGLITQVDKLSEDIDLLKSRIEAAVRRDLHVSTGEFTDLKQQLERDSVVLSLLKQLQEFSTAIEEYNCALTEKKYVTGAQRLEEAQKCLKLLKSRKCFDLKILKSLSMELTIQKQNILYHLGEEWQKLIVWKFPPSKDTSSLESYLQTELHLYTEQSHKEEKTPMPPISSVLLAFSVLGELHSKLKSFGQMLLKYILRPLASCPSLHAVIESQPNIVIIRFESIMTNLEYPSPSEVFTKIRLVLEVLQKQLLDLPLDTDLENEKTSTVPLAEMLGDMIWEDLSECLIKNCLVYSIPTNSSKLQQYEEIIQSTEEFENALKEMRFLKGDTTDLLKYARNINSHFANKKCQDVIVAARNLMTSEIHNTVKIIPDSKINVPELPTPDEDNKLEVQKVSNTQYHEVMNLEPENTLDQHSFSLPTCRISESVKKLMELAYQTLLEATTSSDQCAVQLFYSVRNIFHLFHDVVPTYHKENLQKLPQLAAIHHNNCMYIAHHLLTLGHQFRLRLAPILCDGTATFVDLVPGFRRLGTECFLAQMRAQKGELLERLSSARNFSNMDDEENYSAASKAVRQVLHQLKRLGIVWQDVLPVNIYCKAMGTLLNTAISEVIGKITALEDISTEDGDRLYSLCKTVMDEGPQVFAPLSEESKNKKYQEEVPVYVPKWMPFKELMMMLQASLQEIGDRWADGKGPLAAAFSSSEVKALIRALFQNTERRAAALAKIK
2.7	hZW10 GLI58AAA (natural protein, human, UniProt O43264 1-779, looked up) MASFVTEVLAHSGRLEKEDLGTRISRLTRRVEEIKGEVCNMISKKYSEFLPSMQSAQAAATQVDKLSEDIDLLKSRIESEVRRDLHVSTGEFTDLKQQLERDSVVLSLLKQLQEFSTAIEEYNCALTEKKYVTGAQRLEEAQKCLKLLKSRKCFDLKILKSLSMELTIQKQNILYHLGEEWQKLIVWKFPPSKDTSSLESYLQTELHLYTEQSHKEEKTPMPPISSVLLAFSVLGELHSKLKSFGQMLLKYILRPLASCPSLHAVIESQPNIVIIRFESIMTNLEYPSPSEVFTKIRLVLEVLQKQLLDLPLDTDLENEKTSTVPLAEMLGDMIWEDLSECLIKNCLVYSIPTNSSKLQQYEEIIQSTEEFENALKEMRFLKGDTTDLLKYARNINSHFANKKCQDVIVAARNLMTSEIHNTVKIIPDSKINVPELPTPDEDNKLEVQKVSNTQYHEVMNLEPENTLDQHSFSLPTCRISESVKKLMELAYQTLLEATTSSDQCAVQLFYSVRNIFHLFHDVVPTYHKENLQKLPQLAAIHHNNCMYIAHHLLTLGHQFRLRLAPILCDGTATFVDLVPGFRRLGTECFLAQMRAQKGELLERLSSARNFSNMDDEENYSAASKAVRQVLHQLKRLGIVWQDVLPVNIYCKAMGTLLNTAISEVIGKITALEDISTEDGDRLYSLCKTVMDEGPQVFAPLSEESKNKKYQEEVPVYVPKWMPFKELMMMLQASLQEIGDRWADGKGPLAAAFSSSEVKALIRALFQNTERRAAALAKIK
